A short description of this data set: soluble on expression in E. coli; label from the status in PepcDB or PDB records.
As for “MGSDKIHHHHHHMDKLLYIAMSGAKQNMQALSINANNLANAKTTGFKADLAQARSMQAFGEGLPSRVFSMTERASQNFDSGSILHTGRSLDMAIEGEGFFAVQAEDGQEAYTRGGHFRLTETGALETNDGELVIGENGPITLPLPINNIQISRDGTIMVQPAGAPSSVQEEVGRIKLVNPDTRLVDKGNDGLFRAKNGGQLIADVNVNVLGGALESSNVNPINEMTDMIALQRQFEMQLKMMKTAEEIDSSASSLLRAF”, the “soluble on expression in E. coli” value is listed as “not soluble”.
Consider “MQALILEQQDGKTLASVQHLEESQLPAGDVTVDVHWSSLNYKDALAITGKGKIIRHFPMIPGIDFAGTVHASEDPRFHAGQEVLLTGWGVGENHWGGLAERARVKGDWLVALPAGLSSRNAMIIGTAGFTAMLCVMALEDAGIRPQDGEVVVTGASGGVGSTAVALLHKLGYQVAAVSGRESTHGYLKSLGANRILSRDEFAESRPLEKQLWAGAIDTVGDKVLAKVLAQMNYGGCVAACGLAGGFALPTTVMPFILRNVRLQGVDSVMTPPARRAEAWARLVKDLPESFYAQAATEITLADAPKFADAIINNQVQGRTLVKIK”, for which the “soluble on expression in E. coli” value is “not soluble”.
With “MSLGISEAFDLRPDYIISVIKDTKAKLVGFQFPEGLKRKGPELAKIVEEATGAEVLISGDPCFGACDLDRTLLDHVELLFHFGHAELEDVRLSDKVYFIETRSSVDVRPVVEKALPGLKGEKIGLITTVQHVHKLHDVCRVLEAGGKTCVIGRGDSRLAYAGQVLGCNFSAARDEVCDEYLYIGSGDFHPLGVALSTKKRVLAADPFSGEVREVDPSRILRQRSAVIAKSLDAQVFGIIVSSKNGQMRMELASSLKEIAKKHGKEAHLILIDLVTPDQLLQFKVDAFVNTACPRLAVDEVGRFPSPMLTPQEFEIVLGEREWEKLVLDEITEEPVLEHHHHHH”, the “soluble on expression in E. coli” value is reported as “soluble”.
“MGSDKIHHHHHHMSQRLQALYGLKWNPFSPELPLEALYVPPRVENFCWRIENALVREGGFAMIHGEPGTGKSVVMRVLAEKLERLTDLTVVSINHPQSNLADFYREMGDIFGLELRPHNRWGGFRSLRDRWMSHLQSTRRRPILLIDEAQEMSPGVLNELRLMASARFDSQPLLCVVLAGDTRLTDKLRRDELLPLGSRIRSRLGTEKASADDLLACLDHLLASAGAPQLMTPPLRHTLCEHALGNYRVLTTLANELLTTAAQRELSELDEKLYFEVFAPSTQSSRRTPARQPNGAR”: the “soluble on expression in E. coli” value is listed as “not soluble”.
For “MSLPDHSLFRLRILPWCIALAMSGSYSSVWAEDDIQFDSRFLELKGDTKIDLKRFSSQGYVEPGKYNLQVQLNKQPLAEEYDIYWYAGEDDVSKSYACLTPELVAQFGLKEDVAKNLQWSHDGKCLKPGQLEGVEIKADLSQSALVISLPQAYLEYTWPDWDPPSRWDDGISGIIADYSITAQTRHEENGGDDSNEISGNGTVGVNLGPWRMRADWQTNYQHTRSNDDDDEFGGDDTQKKWEWSRYYAWRALPSLKAKLALGEDYLNSDIFDGFNYVGGSVSTDDQMLPPNLRGYAPDISGVAHTTAKVTVSQMGRVIYETQVPAGPFRIQDLGDSVSGTLHIRIEEQNGQVQEYDISTASMPYLTRPGQVRYKIMMGRPQEWGHHVEGGFFSGAEASWGIANGWSLYGGALGDENYQSAALGVGRDLSTFGAVAFDVTHSHTKLDKDTAYGKGSLDGNSFRVSYSKDFDQLNSRVTFAGYRFSEENFMTMSEYLDASDSEMVRTGNDKEMYTATYNQNFRDAGVSVYLNYTRHTYWDREEQTNYNIMLSHYFNMGSIRNMSVSLTGYRYEYDNRADKGMEGHHHHHH”, the “soluble on expression in E. coli” value is “not soluble”.
Turning to “MSTFKPLKILASRRQVLKAGLAAMTLSGVASQVSAKEQPLKTSNGHSKPAAKKAGGRRIVMLDPGHGGIDTGAIGHNGSKEKHVVLAIAKNVRSILRSNGIDARLTRTGDTFIPLYDRVEIAHQHGADLFMSIHADGFTNPSAAGASVFALSNRGASSAMAKYLSDRENRADEVAGKKATDKDHLLQQVLFDLVQTDTIKNSLTLGSHILKKIKPVHKLHSRNTEQAAFVVLKSPSIPSVLVETSFITNPNEEKLLGTTAFRQKIATAIANGIISYFHWFDNQKAHSKRR”, the “soluble on expression in E. coli” value is on record as “not soluble”.
The entry for “MGSDKIHHHHHHMNGQKIIGSQCITQCNPDLRITELIIPGTHDSATSTCYERYYRTQDLSIAEQLDCGVRFLDIRLRKEMVAAHREWVSDIRAEEIFEKCGEFLQKNPQEFVLMRIQNANERKDDFPEYGEALLSKVQQYKSLFYAWDHSQIVQDGNPKWPTIAQAAGKIVPIECAPPSMSINKIDGELWAANWHDNSQILLQDLWDGPTVEEKCVAIKTLIEKGREVHSDILLLNHISATNGELQYPDAYAAYLNEYSSRLWKQLAKRSFRGVQIYDFINPSICQELLRLNFD” is “not soluble”.
Take “MFNKAIVIGGSMAGKFAAKALSTSFKEVIIIEASERWDGKSSRKRVPQSNHPHVLLKGGENAIEELFPNITDELIEAGSIVNNFTRDLKWHQFGLWKQPFIGEVHMIQQSRPLLEWNIQKRIHQISNITIKYETLVKGLLVDEKLNKVCGVKVKYLETDAQEEVHADLVVDASGFGSKSIEWLREYEIEVQEEKVRINLFYATKMFKLKENEELDCCNMLMSPSFPDNPYGVLIQTIEDNRYFVTFSGYANEKAPQTDDEFYDFAENLSISNVTDFLNKAVAISDIKTYKIPYQVRRRFDLTTNMPEGLLVVGDAHCRFDPVFGQGVSVAAMEARQLQLLLQGRKQLDKTFTQQFYKKAATIIETPWEMTTTEISRHPQLKRELTIKQKFQLWYTKQIYQLSATDSDVYIRLVKVMNLIRSPFHLFHPKVLLAVLLKRKKLEHHHHHH”: the “soluble on expression in E. coli” value is “not soluble”.
“MLILVSPAKTLDFEQPPLTQIHTRPDFLAQSQELIQVCQQLTPSDIATLMKVSDSIAGLNAARFGEWKPDYSIDNAKQAIFAFRGDVYTGFDADTLTAAQLERTQSQLRILSGLYGLLRPLDLILPYRLEMGTALTNQKGKNLYEFWGNTLTDAVNSAVAAQGDGIIINLASNEYFKAIKPKFLNGQLITPVFKDFKNGQYKVISFFAKRARGMMARYIIDQQVSSIDGLKAFEVDGYYYSEELSKPNEPTFLREAQ”: the “soluble on expression in E. coli” value was “soluble”.
The same measure for “MPNKISGSIAPSASSDAMKSADCAENIKEEVVSKHVHQAVPAELADLPSRQPPRSKTALYQVIQKFRDPLPLPPPPTSHPVLAYDRDLGSSDNFRSSDEFDLPESLNPTGWKNLHVSGSGSIASIGQITRLRPSKERPVVVLDAREESHAIVGGYPGTWRTPNNWGNAGKSRDEALADEQQRIQALKSQETVHIFHRKDVKSEARNPRGATLSKPLIFSEEELVRAAGAKYVRLTVTDHLSPRADDIDAFIAMEREMAHDERLHVHCGMGLGRTTIFIVMHDILRNAAMLSFDDIIERQRKFNPGRSLDNNKDVSDKGRSEFRNERSEFLPLFYEYAKQNPKGQPLLWSEWLDHNA”: “not soluble”; for “GHHHHHHHHHHSSGHIEGRHMRVLFVSSPGIGHLFPLIQLAWGFRTAGHDVLIAVAEHADRAAAAGLEVVDVAPDYSAVKVFEQVAKDNPRFAETVATRPAIDLEEWGVQIAAVNRPLVDGTMALVDDYRPDLVVYEQGATVGLLAADRAGVPAVQRNQSAWRTRGMHRSIASFLTDLMDKHQVSLPEPVATIESFPPSLLLEAEPEGWFMRWVPYGGGAVLGDRLPPVPARPEVAITMGTIELQAFGIGAVEPIIAAAGEVDADFVLALGDLDISPLGTLPRNVRAVGWTPLHTLLRTCTAVVHHGGGGTVMTAIDAGIPQLLAPDPRDQFQHTAREAVSRRGIGLVSTSDKVDADLLRRLIGDESLRTAAREVREEMVALPTPAETVRRIVERISG”: “soluble”.
Turning to “MWLLQLMQQQHSIDMMKKQGLKLEAQDLYNPNGVSLKDAVGIFGGGCTGEIISPEGLILTNHHCGYSSIQQHSSVEHDYLTDGFWATSRDQELPTPGLKFTFIERIEDITDIVNAKIAAKEITESQSFTGAFLEGLAKELYEKSDLKDKKGIVPQALPFYAGNKFYLFYKKIYPDVRMVAAPPSSVGKFGGETDNWMWPRHTGDFSMFRIYADANGEPAEYSASNTPLKTKKHLSISIKGLKEGDYAMIMGFPGRTSRYLTVSEVKERMESTNEPRIRIRGARLAVLKEVMNASDKIRIQYANKYAGSSNYWKNSIGMNKAIIDNDVLGTKAEQEAKFAEYAKAQNNTEYANVVKKIDDLVAQTAPLNYQLTCLTEVFFGAIEFGNSMLTKTREALVDKNDSLIKVRLEGLKENFKSIHNKDYDHEVDRKVAKALLPLYAEMIPANQRPAIYKVIEQKYKGDYNKFVDDMYDKSIFANQANFDKFLKKPTVKAIDEDLALQYAQSKYDQYGNLLDQLKELDKELALLHKTYIRGLGEMKLPVPSYPDANFTIRLTYGNVKPYDPKDGVHYNYYTTTKGILEKENPEDREFVVPAKLKELIEKKDYGRYALPNGDMPVCFLSTNDITGGNSGSPVLNENGELIGCAFDGNWESLSGDINFDNNLQRCINLDIRYVLFILEKLGNCGHLINEMTIVE”, the “soluble on expression in E. coli” value is “not soluble”.
The entry for “MQANSEEYCELCGSQIRGKGITVSYEGSIITVCNSCYDRIRKHAVIVKADSKKSETRKKATLKPPKMENAELEIVTDYYKIIKTAREQLGISQQQLAQKLKVSENIVKRFESGKLKPTISQARQLEKILGIKLVTPLENNEESEKEFDDTGLTLGDVVNIKEGKK” is “not soluble”; for “MAHHHHHHMFAIRCPASMLWHPSVHHSLLLLRALEQPHTLLLDTHTASRGRLSVPLLSECAREVRIQTPPGHHEFDSPAGASTERSVLLYRAEDLLHIVNRPLSAGHDLGAACPTQSGVFASLLEYLEASTVSSHVISAIDALLVSLNTGDMETMRQTHACLVELIERLEASITDESLSEAHRTDQKEPLSTWPLFCTLQFLIEEGGMLTSAFPRTNKAYTRLCHSSKAVALHRRLVQRTVEQLLDVGSSANADVSQGARVEMNYPAKGFLREVQRHLASYNRSMEERTTDGVSGEKGPLNSRASGGRLGIQAVQARLPWTLQARPLRKG” it is “soluble”; for “LIGYVRVSTNDQNTDLQRNALNCAGCELIFEDKISGTKSERPGLKKLLRTLSAGDTLVVWKLDRLGRSMRHLVVLVEELRERGINFRSLTDSIDTSTPMGRFFFHVMGALAEMERELIVERTKAGLETARAQGRIGGRRPKLTPEQWAQAGRLIAAGTPRQKVAIIYDVGVSTLYKRFPAGDK” it is “soluble”.
On to “MLSKRLLNFESFEVMDILALAQKLESEGKKVIHLEIGEPDFNTPKPIVDEGIKSLKEGKTHYTDSRGILELREKISELYKDKYKADIIPDNIIITGGSSLGLFFALSSIIDDGDEVLIQNPCYPCYKNFIRFLGAKPVFCDFTVESLEEALSDKTKAIIINSPSNPLGEVIDREIYEFAYENIPYIISDEIYNGLVYEGKCYSAIEFDENLEKTILINGFSKLYAMTGWRIGYVISNDEIIEAILKLQQNLFISAPTISQYAALKAFEKETEREINSMIKEFDRRRRLVLKYVKDFGWEVNNPIGAYYVFPNIGEDGREFAYKLLKEKFVALTPGIGFGSKGKNYIRISYANSYENIKEGLERIKEFLNK”, for which the “soluble on expression in E. coli” value is given as “soluble”.
As to “MKTGYVLKGRVIDGTLGPALEQGAVVTEGERIAWVGPQSGLPAQYAGDRHTVVDLPGRTIMPGLIDAHTHISFGESRSEEENALYTPVEFRTAKALWYARKVLQAGVTSAFDAATSYNIAQAVRDAIDTGMFEGPRFTVSGKQLTNHHGLEDSFPNEMAFPPGQSAVLVKTREDLVEAIHYQVKDEVDAIKVSGSNDNLITPDALGSSAFTYEEFKIIADETHRLGRLCSVHARSRDAALYAAQAGFDNLFHASYIDDEGIEACLKNGCVITPTLTLLVNLVEAKQSHAGASSAQAFRQEIEAASVNLRRAYDAGVPLLAGSESGWSPVPYGHWHAREMEIFVKLLGLTPLQAIHANTLACTRLLARHGHEVGKLEASRLADVLVLPGNPLEDITLLQRPSRFDYIFKGGTPVDRTAPAPRVRKWYERTKIFLAGVYEYDQENACGRLVQ”, the “soluble on expression in E. coli” value was “not soluble”.

Source of the values: the DeepSol protein solubility set.
